# T1: human CEA expressed on tumor cells (LS-174T, A549-huCEA, MKN-45, MC38-huCEA, HPAFII, BxPC-3, ASPC-1) (human, UniProt P06731 35-685)
# T1 sequence (looked up): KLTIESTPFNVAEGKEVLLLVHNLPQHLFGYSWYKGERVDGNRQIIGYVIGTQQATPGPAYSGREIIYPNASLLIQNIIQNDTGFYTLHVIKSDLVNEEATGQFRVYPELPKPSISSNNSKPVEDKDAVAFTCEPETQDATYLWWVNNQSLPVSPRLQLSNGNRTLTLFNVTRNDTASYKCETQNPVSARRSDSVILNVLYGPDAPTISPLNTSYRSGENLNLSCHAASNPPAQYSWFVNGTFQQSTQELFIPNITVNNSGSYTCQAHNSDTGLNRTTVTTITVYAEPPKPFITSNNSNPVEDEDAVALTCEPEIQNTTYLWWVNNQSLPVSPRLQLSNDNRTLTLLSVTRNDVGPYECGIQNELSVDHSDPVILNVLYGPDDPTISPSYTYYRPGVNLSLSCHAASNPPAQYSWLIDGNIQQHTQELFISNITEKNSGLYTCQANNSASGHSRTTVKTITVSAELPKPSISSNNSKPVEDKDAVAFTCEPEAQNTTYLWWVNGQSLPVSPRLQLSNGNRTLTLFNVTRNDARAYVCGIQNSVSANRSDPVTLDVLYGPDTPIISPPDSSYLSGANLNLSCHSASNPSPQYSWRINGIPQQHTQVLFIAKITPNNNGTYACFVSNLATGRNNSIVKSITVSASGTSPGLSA
# T2: human NABA-avi-his (human)
# T2 construct: Chimeric antigen with a C-terminal avi 6his tag; also called recombinant tumor target antigen
# T2 chain: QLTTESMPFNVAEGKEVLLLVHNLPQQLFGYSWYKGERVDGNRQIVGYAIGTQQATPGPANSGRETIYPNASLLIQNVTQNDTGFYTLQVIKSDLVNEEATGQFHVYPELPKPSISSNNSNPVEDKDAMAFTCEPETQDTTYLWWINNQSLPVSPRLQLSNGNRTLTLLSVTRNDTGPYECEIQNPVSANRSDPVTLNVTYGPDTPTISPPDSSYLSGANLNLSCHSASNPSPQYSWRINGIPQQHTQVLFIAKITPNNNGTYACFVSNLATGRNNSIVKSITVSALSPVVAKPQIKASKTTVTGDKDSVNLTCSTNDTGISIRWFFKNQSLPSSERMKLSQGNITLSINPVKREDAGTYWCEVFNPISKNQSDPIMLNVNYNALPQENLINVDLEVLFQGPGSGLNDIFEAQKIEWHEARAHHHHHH
# B1: CEA TCB (2+1 Crossfab-IgG P329G LALA inverted) (bispecific antibody)
# chain 1: DIQMTQSPSSLSASVGDRVTITCKASAAVGTYVAWYQQKPGKAPKLLIYSASYRKRGVPSRFSGSGSGTDFTLTISSLQPEDFATYYCHQYYTYPLFTFGQGTKLEIKRTVAAPSVFIFPPSDEQLKSGTASVVCLLNNFYPREAKVQWKVDNALQSGNSQESVTEQDSKDSTYSLSSTLTLSKADYEKHKVYACEVTHQGLSSPVTKSFNRGEC
# chain 2: QAVVTQEPSLTVSPGGTVTLTCGSSTGAVTTSNYANWVQEKPGQAFRGLIGGTNKRAPGTPARFSGSLLGGKAALTLSGAQPEDEAEYYCALWYSNLWVFGGGTKLTVLSSASTKGPSVFPLAPSSKSTSGGTAALGCLVKDYFPEPVTVSWNSGALTSGVHTFPAVLQSSGLYSLSSVVTVPSSSLGTQTYICNVNHKPSNTKVDKKVEPKSC
# chain 3: not shown
# chain 4: QVQLVQSGAEVKKPGASVKVSCKASGYTFTEFGMNWVRQAPGQGLEWMGWINTKTGEATYVEEFKGRVTFTTDTSTSTAYMELRSLRSDDTAVYYCARWDFAYYVEAMDYWGQGTTVTVSSASTKGPSVFPLAPSSKSTSGGTAALGCLVKDYFPEPVTVSWNSGALTSGVHTFPAVLQSSGLYSLSSVVTVPSSSLGTQTYICNVNHKPSNTKVDKKVEPKSCDKTHTCPPCPAPEAAGGPSVFLFPPKPKDTLMISRTPEVTCVVVDVSHEDPEVKFNWYVDGVEVHNAKTKPREEQYNSTYRVVSVLTVLHQDWLNGKEYKCKVSNKALGAPIEKTISKAKGQPREPQVCTLPPSRDELTKNQVSLSCAVKGFYPSDIAVEWESNGQPENNYKTTPPVLDSDGSFFLVSKLTVDKSRWQQGNVFSCSVMHEALHNHYTQKSLSLSPGK
# notes: CH1A1A 98/99 2F1 as anti-CEA and humanized CH2527 as anti-CD3 antibody; also called CEA TCB antibody
# Experiments:
# [1] = target: T1, human CEA expressed on tumor cells …; assay: cell-based or functional assay
# [2] = target: T1, human CEA expressed on tumor cells …; assay: flow cytometry on A549-huCEA cells
# Experimental: Briefly, cells were harvested, counted, checked for viability and resuspended at 2×10⁶ cells/ml in FACS buffer (100 μl PBS 0.1% BSA).
# [3] = target: T1, human CEA expressed on tumor cells …; assay: cell-based or functional assay; remark: listed apart in the source
# human NABA-avi-his [4] = target: T2, human NABA-avi-his; assay: SPR Biacore T100, 25 C; TCB captured via anti-human Fab, antigen as analyte
# [5] = target: T3, human CD3ε stalk-Fc (knob)-Avi/CD3δ-stalk-Fc(hole) (human); assay: as above
# T3 construct: also called Human CD3ε/CD3δ; recombinant CD3ε/CD3δ
# human NABA-avi-his [6] = target: T2, human NABA-avi-his; assay: SPR Biacore T100, 25 C; t1/2 = ln 2/koff
# Experimental: (§1) Surface plasmon resonance (SPR) experiments were performed on a Biacore T100 at 25° C. with HBS-EP as running buffer (0.01 M HEPES pH 7.4, 0.15 M NaCl, 3 mM EDTA, 0.005% Surfactant P20, Biacore, Freiburg/Germany).
# (§2) Kinetic constants were derived using the Biacore T200 Evaluation Software (vAA, Biacore AB, Uppsala/Sweden), to fit rate equations for 1:1 Langmuir binding by numerical integration. The half-life (t_{1/2}) of the interaction was calculated using following formula: t_{1/2}=ln 2/koff.
# [7] = target: T3, human CD3ε stalk-Fc …; assay: SPR Biacore T100, 25 C; t1/2 = ln 2/koff
# Experimental: as §1, §2
# T3 sequence (chain, as listed by the source mutant limits assumed, chain 1 of 2): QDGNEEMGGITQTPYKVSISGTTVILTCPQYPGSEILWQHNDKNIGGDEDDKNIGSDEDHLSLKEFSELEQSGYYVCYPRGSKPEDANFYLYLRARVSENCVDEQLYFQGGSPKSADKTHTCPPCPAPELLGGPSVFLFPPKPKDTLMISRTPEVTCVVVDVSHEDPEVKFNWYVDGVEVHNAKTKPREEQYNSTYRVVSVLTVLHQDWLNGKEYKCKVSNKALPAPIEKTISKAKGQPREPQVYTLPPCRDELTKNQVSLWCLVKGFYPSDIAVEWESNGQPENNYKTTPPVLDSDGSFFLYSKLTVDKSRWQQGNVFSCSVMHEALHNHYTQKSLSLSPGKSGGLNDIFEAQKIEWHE
# T3 sequence (chain, as listed by the source mutant limits assumed, chain 2 of 2): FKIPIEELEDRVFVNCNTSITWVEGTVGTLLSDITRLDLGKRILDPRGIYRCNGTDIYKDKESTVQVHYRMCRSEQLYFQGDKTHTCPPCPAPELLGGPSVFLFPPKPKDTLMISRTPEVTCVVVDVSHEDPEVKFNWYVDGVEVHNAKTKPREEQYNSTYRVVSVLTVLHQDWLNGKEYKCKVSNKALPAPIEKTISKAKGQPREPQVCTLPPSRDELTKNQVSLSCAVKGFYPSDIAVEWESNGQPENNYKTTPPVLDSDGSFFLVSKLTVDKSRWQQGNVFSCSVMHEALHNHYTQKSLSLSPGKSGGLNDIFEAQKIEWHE
binder,measurement,setting,value
B1,"EC50 [pM] 48 h of T-cell mediated killing (LDH release), ASPC1 cells, human PBMCs E:T 10:1",[1],846 pM
same,"EC50 [pM] 48 h of T-cell mediated killing (LDH release), BxPC-3 cells, human PBMCs E:T 10:1",[1],3780 pM
same,"EC50 [pM] 48 h of T-cell mediated killing (LDH release), HPAFII cells, human PBMCs E:T 10:1",[1],667 pM
same,EC50,[2],6.6 nM
same,"EC50 of T cell-mediated killing (LDH release), A549-hCEA cells, cynomolgus PBMCs E:T 10:1, 40 h",[3],0.102 nM
same,"EC50 of T cell-mediated killing (LDH release), A549-hCEA cells, human PBMCs E:T 10:1, 40 h",[3],0.306 nM
same,Kd,human NABA-avi-his [4],62.4 nM
same,koff,human NABA-avi-his [4],0.00218 s⁻¹
same,kon,human NABA-avi-his [4],34900 M⁻¹ s⁻¹
same,Kd,[5],75.3 nM
same,koff,[5],0.00203 s⁻¹
same,kon,[5],26900 M⁻¹ s⁻¹
same,t1/2,human NABA-avi-his [6],5.3 min
same,t1/2,[7],5.7 min

# From patent US20140242080A1 (Hoffmann-La Roche, published 2014)
